Measurements from article PMC9482650, “Quantitative fragmentomics allow affinity mapping of interactomes” (Nature Communications, 2022).

Assays:
Assay in all cases: holdup assay
Design in all cases: key: below the threshold = too weak to quantify, mostly under pKd 3.1 to 4
Conditions in all cases: plain residues with an end cap or a label only (N-terminal biotin on a linker: ttds)
APBA1_1, Q02410 = target: T1, APBA1_1, Q02410
T1 sequence (Q02410 651-752, limits assumed, looked up): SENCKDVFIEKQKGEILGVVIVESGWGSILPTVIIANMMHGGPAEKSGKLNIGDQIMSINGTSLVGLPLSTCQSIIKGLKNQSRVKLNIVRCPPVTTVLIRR

APBA2_2, Q99767 = target: T2, APBA2_2, Q99767
T2 sequence (Q99767 654-744, limits assumed, looked up): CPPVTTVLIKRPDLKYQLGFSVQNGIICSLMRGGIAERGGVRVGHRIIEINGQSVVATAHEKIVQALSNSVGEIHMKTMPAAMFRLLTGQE

DFNB31_2, Q9P202 = target: T3, DFNB31_2, Q9P202
T3 sequence (Q9P202 274-371, limits assumed, looked up): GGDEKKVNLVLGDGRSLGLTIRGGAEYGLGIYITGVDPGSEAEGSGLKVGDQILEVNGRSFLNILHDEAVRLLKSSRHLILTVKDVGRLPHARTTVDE

DFNB31_3, Q9P202 = target: T4, DFNB31_3, Q9P202
T4 sequence (Q9P202 811-907, limits assumed, looked up): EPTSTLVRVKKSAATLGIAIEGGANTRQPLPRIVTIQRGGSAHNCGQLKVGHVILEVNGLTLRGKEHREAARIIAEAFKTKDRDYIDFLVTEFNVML

DLG2_2, Q15700 = target: DLG2_2, Q15700
Sequence of DLG2_2, Q15700 (Q15700 189-283): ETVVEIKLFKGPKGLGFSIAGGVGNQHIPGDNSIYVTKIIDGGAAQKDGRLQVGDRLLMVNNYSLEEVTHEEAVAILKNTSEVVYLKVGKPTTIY

DLG3_1, Q92796 = target: T5, DLG3_1, Q92796
T5 sequence (Q92796 125-227, limits assumed, looked up): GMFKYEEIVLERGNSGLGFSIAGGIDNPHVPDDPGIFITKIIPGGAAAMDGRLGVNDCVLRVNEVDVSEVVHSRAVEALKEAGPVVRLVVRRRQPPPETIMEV

FRMPD1, Q5SYB0 = target: T6, FRMPD1, Q5SYB0
T6 sequence (Q5SYB0 52-145, limits assumed, looked up): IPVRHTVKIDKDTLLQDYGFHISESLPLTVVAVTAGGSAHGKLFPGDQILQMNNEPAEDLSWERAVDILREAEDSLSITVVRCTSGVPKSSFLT

FRMPD4, Q14CM0 = target: FRMPD4, Q14CM0
Sequence of FRMPD4, Q14CM0 (Q14CM0 67-160): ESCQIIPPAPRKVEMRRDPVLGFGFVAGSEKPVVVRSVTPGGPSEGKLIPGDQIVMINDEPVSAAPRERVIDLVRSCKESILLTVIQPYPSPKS

GORASP2, Q9H8Y8 = target: GORASP2, Q9H8Y8
GRASP, Q7Z6J2 = target: GRASP, Q7Z6J2
Sequence of GRASP, Q7Z6J2 (Q7Z6J2 96-193): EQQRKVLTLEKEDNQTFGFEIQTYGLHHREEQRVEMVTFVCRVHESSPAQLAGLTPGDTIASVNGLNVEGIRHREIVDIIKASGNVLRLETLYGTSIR

GRIP1_2, Q9Y3R0 = target: T7, GRIP1_2, Q9Y3R0
T7 sequence (Q9Y3R0 145-248, limits assumed, looked up): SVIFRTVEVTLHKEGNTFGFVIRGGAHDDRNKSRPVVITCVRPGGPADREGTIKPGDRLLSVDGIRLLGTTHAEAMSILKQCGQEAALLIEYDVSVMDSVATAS

GRIP2_7, Q9C0E4 = target: GRIP2_7, Q9C0E4
Sequence of GRIP2_7, Q9C0E4 (Q9C0E4 934-1023): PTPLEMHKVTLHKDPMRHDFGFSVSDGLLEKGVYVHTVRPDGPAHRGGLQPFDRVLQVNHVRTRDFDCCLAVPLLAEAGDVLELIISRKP

HTRA1, Q92743 = target: HTRA1, Q92743
Sequence of HTRA1, Q92743 (Q92743 360-477): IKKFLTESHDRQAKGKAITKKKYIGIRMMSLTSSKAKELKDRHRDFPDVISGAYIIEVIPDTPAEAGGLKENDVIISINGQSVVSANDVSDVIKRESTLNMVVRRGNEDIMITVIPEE

HTRA4, P83105 = target: T8, HTRA4, P83105
T8 sequence (P83105 378-476, limits assumed, looked up): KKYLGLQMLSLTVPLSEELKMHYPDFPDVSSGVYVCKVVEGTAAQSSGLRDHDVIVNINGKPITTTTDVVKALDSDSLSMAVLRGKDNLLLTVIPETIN

IL16_3, Q14005 = target: IL16_3, Q14005
Sequence of IL16_3, Q14005 (Q14005 1107-1207): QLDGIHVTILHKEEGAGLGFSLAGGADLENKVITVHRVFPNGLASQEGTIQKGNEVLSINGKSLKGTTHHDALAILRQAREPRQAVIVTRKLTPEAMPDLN

LIN7A, O14910 = target: T9, LIN7A, O14910
T9 sequence (O14910 103-200, limits assumed, looked up): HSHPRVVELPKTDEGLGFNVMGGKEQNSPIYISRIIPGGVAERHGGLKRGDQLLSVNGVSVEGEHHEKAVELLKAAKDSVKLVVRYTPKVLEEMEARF

LNX1_2, Q8TBB1 = target: LNX1_2, Q8TBB1
Sequence of LNX1_2, Q8TBB1 (Q8TBB1 371-470): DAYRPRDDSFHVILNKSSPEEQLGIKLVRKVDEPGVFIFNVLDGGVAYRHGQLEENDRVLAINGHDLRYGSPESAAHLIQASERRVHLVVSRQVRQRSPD

MAGI1_1, Q96QZ7 = target: MAGI1_1, Q96QZ7
Sequence of MAGI1_1, Q96QZ7 (Q96QZ7 1-106): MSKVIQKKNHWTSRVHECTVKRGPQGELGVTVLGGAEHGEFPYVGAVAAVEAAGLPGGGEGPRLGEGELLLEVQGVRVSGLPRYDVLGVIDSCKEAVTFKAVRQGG

MAGI2_4, Q86UL8 = target: MAGI2_4, Q86UL8
Sequence of MAGI2_4, Q86UL8 (Q86UL8 772-865): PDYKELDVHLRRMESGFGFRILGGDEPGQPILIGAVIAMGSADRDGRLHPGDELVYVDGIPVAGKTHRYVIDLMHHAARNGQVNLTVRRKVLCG

MAGI2_6, Q86UL8 = target: MAGI2_6, Q86UL8
Sequence of MAGI2_6, Q86UL8 (Q86UL8 1141-1229): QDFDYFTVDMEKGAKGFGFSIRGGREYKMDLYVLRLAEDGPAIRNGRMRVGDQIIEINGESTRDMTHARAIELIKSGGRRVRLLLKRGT

MAST2, Q6P0Q8 = target: MAST2, Q6P0Q8
Sequence of MAST2, Q6P0Q8 (Q6P0Q8 1099-1202): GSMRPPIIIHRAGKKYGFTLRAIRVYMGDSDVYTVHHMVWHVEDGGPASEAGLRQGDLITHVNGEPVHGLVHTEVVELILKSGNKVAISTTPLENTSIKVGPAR

MPP2, Q14168 = target: T10, MPP2, Q14168
T10 sequence (Q14168 180-250, limits assumed, looked up): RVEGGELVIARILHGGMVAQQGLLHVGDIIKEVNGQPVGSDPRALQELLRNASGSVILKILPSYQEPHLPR

PARD3B_1, Q8TEW8 = target: T11, PARD3B_1, Q8TEW8
T11 sequence (Q8TEW8 196-299, limits assumed, looked up): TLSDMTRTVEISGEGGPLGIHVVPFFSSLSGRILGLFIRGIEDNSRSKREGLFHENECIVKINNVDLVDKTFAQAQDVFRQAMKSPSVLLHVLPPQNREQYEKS

SCRIB_1, Q14160 = target: SCRIB_1, Q14160
Sequence of SCRIB_1, Q14160 (Q14160 718-814): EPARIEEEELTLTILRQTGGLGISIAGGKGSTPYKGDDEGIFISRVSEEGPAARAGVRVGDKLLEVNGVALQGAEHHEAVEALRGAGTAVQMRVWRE

SNTA1, Q13424 = target: T12, SNTA1, Q13424
T12 sequence (Q13424 82-180, limits assumed, looked up): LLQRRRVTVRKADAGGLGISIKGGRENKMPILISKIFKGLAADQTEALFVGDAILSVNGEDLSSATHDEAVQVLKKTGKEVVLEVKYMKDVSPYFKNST

B1: HPV35-E6, P27228 (peptide)
chain: SKPTRRETEV
pKd (APBA1_1, Q02410): below the threshold
pKd (APBA2_2, Q99767): below the threshold
pKd (DFNB31_2, Q9P202): below the threshold
pKd (DFNB31_3, Q9P202): below the threshold
pKd (DLG2_2, Q15700): 5.27
pKd (DLG3_1, Q92796): 4.45
pKd (FRMPD1, Q5SYB0): below the threshold
pKd (FRMPD4, Q14CM0): below the threshold
pKd (GORASP2, Q9H8Y8): 3.82
pKd (GRASP, Q7Z6J2): below the threshold
pKd (GRIP1_2, Q9Y3R0): below the threshold
pKd (GRIP2_7, Q9C0E4): below the threshold
pKd (HTRA1, Q92743): below the threshold
pKd (HTRA4, P83105): below the threshold
pKd (IL16_3, Q14005): below the threshold
pKd (LIN7A, O14910): below the threshold
pKd (LNX1_2, Q8TBB1): below the threshold
pKd (MAGI1_1, Q96QZ7): below the threshold
pKd (MAGI2_4, Q86UL8): 4.34
pKd (MAGI2_6, Q86UL8): 3.49
pKd (MAST2, Q6P0Q8): 5.09
pKd (MPP2, Q14168): below the threshold
pKd (PARD3B_1, Q8TEW8): below the threshold
pKd (SCRIB_1, Q14160): 4.56
pKd (SNTA1, Q13424): 4.85

B2: HPV59-E6, Q81964 (peptide)
chain: QRQARSETLV
pKd (APBA1_1, Q02410): below the threshold
pKd (APBA2_2, Q99767): below the threshold
pKd (DFNB31_2, Q9P202): below the threshold
pKd (DFNB31_3, Q9P202): below the threshold
pKd (DLG2_2, Q15700): 4.97
pKd (DLG3_1, Q92796): 4.58
pKd (FRMPD1, Q5SYB0): below the threshold
pKd (FRMPD4, Q14CM0): below the threshold
pKd (GORASP2, Q9H8Y8): 4.34
pKd (GRASP, Q7Z6J2): below the threshold
pKd (GRIP1_2, Q9Y3R0): below the threshold
pKd (GRIP2_7, Q9C0E4): below the threshold
pKd (HTRA1, Q92743): 4.14
pKd (HTRA4, P83105): 3.78
pKd (IL16_3, Q14005): below the threshold
pKd (LIN7A, O14910): below the threshold
pKd (LNX1_2, Q8TBB1): 4.25
pKd (MAGI1_1, Q96QZ7): below the threshold
pKd (MAGI2_4, Q86UL8): 5.71
pKd (MAGI2_6, Q86UL8): 3.74
pKd (MAST2, Q6P0Q8): 5.03
pKd (MPP2, Q14168): below the threshold
pKd (PARD3B_1, Q8TEW8): below the threshold
pKd (SCRIB_1, Q14160): 3.82
pKd (SNTA1, Q13424): 3.99

B3: ARHGEF7, Q14155;Q14155-1 (peptide)
chain: NDPAWDETNL
pKd (APBA1_1, Q02410): below the threshold
pKd (APBA2_2, Q99767): below the threshold
pKd (DFNB31_2, Q9P202): below the threshold
pKd (DFNB31_3, Q9P202): below the threshold
pKd (DLG2_2, Q15700): below the threshold
pKd (DLG3_1, Q92796): below the threshold
pKd (FRMPD1, Q5SYB0): below the threshold
pKd (FRMPD4, Q14CM0): 4.66
pKd (GORASP2, Q9H8Y8): below the threshold
pKd (GRASP, Q7Z6J2): below the threshold
pKd (GRIP1_2, Q9Y3R0): below the threshold
pKd (GRIP2_7, Q9C0E4): below the threshold
pKd (HTRA1, Q92743): 3.92
pKd (HTRA4, P83105): below the threshold
pKd (IL16_3, Q14005): below the threshold
pKd (LIN7A, O14910): below the threshold
pKd (LNX1_2, Q8TBB1): below the threshold
pKd (MAGI1_1, Q96QZ7): below the threshold
pKd (MAGI2_4, Q86UL8): below the threshold
pKd (MAGI2_6, Q86UL8): 3.92
pKd (MAST2, Q6P0Q8): 5.98
pKd (MPP2, Q14168): below the threshold
pKd (SCRIB_1, Q14160): 5.5
